Assay results as given in US6013453, “Binding proteins for recognition of DNA” (Medical Research Council).

Biological target: anti-BCR-ABL 1A-2A-3B/VP16 fusion (synthetic construct)
Experiment: cell_activity; C3H10T1/2 cells
Source text: Having established DNA discrimination in vitro, the inventors wished to test whether the anti-BCR-ABL peptide was capable of site-specific DNA-binding in vivo. The peptide was fused to the VP16 activation domain from herpes simplex virus (Fields 1993 Methods 5, 116–124) and used in transient transfection assays (FIG. 9) to drive production of a CAT (chloramphenicol acetyl transferase) reporter gene from a binding site upstream of the TATA box (Gorman et al., Mol. Cell. Biol. 2, 1044–1051). In detail the experiment was performed thus: reporter plasmids pMCAT6BA, pMCAT6A, and pMCAT6B, were constructed by inserting 6 copies of the p190^BCR-ABL target site ([…], SEQ ID No. 121), the c-ABL second exon-intron junction sequence ([…], Seq ID No. 122), or the BCR first exon-intron junction sequence ([…] Seq ID No. 123) respectively, into pMCAT3 (Luscher et al., 1989 Genes Dev. 3, 1507–1517). The anti-BCR-ABL/VP16 expression vector was generated by inserting the in-frame fusion between the activation domain of herpes simplex virus VP16 (Fields 1993) and the Zn finger peptide in the pEF-BOS vector (Mizushima & Shigezaku 1990 Nucl. Acids Res. 18, 5322). C3H10T1/2 cells were transiently co-transfected with […] of reporter plasmid and […] of expression vector. […]

B1: p190 BCR-ABL site x6 reporter pMCAT6BA (dsDNA)
DNA 1: CGCAGAAGCC
DNA 2: GGCTTCTGCG
activity: ~30 fold CAT activation
